Results reported in patent publication US20200148732A1 (UNIVERSITY OF COPENHAGEN, published 2020).
Changes are numbered by the printed parent chain.

Key:
GFP-TONSL E568A = biological target: T1, GFP-TONSL E568A (Homo sapiens, UniProt Q96HA7 1-1378); assay: GFP immunoprecipitation of GFP-TONSL from transfected HeLa S3 cells, western blot (co-IP; association may be indirect)
T1 construct: also called TONSL E568A / GFP; not shown: N-terminal GFP tag
T1 sequence: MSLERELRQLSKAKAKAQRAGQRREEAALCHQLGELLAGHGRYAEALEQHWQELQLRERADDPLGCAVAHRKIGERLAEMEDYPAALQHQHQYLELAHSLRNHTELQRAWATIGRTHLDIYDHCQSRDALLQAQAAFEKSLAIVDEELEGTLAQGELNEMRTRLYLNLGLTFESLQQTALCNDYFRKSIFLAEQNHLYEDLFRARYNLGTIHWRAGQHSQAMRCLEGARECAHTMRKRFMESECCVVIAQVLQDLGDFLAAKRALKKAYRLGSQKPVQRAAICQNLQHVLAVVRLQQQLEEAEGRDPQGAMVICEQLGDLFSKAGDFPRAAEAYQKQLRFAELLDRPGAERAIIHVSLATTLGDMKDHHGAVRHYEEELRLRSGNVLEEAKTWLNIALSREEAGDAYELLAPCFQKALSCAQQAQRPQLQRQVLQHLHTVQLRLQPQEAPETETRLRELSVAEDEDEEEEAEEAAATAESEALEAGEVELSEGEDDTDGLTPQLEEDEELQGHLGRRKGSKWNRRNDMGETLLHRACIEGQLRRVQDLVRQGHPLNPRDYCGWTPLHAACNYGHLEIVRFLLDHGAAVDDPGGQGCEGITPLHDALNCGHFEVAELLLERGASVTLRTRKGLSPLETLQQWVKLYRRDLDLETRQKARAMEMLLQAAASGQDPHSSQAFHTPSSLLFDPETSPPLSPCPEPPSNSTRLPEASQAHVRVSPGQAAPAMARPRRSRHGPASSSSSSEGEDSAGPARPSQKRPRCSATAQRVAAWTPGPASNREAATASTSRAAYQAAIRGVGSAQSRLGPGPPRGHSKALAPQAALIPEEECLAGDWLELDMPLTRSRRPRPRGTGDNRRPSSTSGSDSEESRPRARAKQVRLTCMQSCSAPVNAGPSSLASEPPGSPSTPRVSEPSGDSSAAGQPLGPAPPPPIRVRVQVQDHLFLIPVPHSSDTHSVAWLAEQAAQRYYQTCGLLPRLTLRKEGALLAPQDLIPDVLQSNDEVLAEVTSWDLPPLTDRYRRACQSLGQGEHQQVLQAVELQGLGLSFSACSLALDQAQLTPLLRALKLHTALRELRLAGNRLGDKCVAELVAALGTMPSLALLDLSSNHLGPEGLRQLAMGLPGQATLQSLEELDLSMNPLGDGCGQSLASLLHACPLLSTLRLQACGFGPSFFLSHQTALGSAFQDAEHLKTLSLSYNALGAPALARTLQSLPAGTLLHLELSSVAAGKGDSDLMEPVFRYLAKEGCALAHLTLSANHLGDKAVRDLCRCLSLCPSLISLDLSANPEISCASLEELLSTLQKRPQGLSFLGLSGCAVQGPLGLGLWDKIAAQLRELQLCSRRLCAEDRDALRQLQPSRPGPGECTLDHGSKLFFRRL

[1] = biological target: T2, GFP-TONSL wild type (full length) (Homo sapiens, UniProt Q96HA7 1-1378); assay: as above
T2 construct: Expressed in U-2-OS or HeLa S3 cells; assayed in cell extracts; also called GFP-TONSL WT; TONSL WT / GFP; not shown: N-terminal GFP tag
T2 sequence: T1 sequence with A568E

B1: MMS22L (endogenous, in cell extracts) (other, UniProt Q6ZRQ5 1-1243, looked up)
chain: MENCSAASTFLTDSLELELGTEWCKPPYFSCAVDNRGGGKHFSGESYLCSGALKRLILNLDPLPTNFEEDTLEIFGIQWVTETALVNSSRELFHLFRQQLYNLETLLQSSCDFGKVSTLHCKADNIRQQCVLFLHYVKVFIFRYLKVQNAESHVPVHPYEALEAQLPSVLIDELHGLLLYIGHLSELPSVNIGAFVNQNQIKLFPPSWHLLHLHLDIHWLVLEILYMLGEKLKQVVYGHQFMNLASDNLTNISLFEEHCETLLCDLISLSLNRYDKVRSSESLMSDQCPCLCIKELWVLLIHLLDHRSKWFVSESFWNWLNKLLKTLLEKSSDRRRSSMPVIQSRDPLGFSWWIITHVASFYKFDRHGVPDEMRKVESNWNFVEELLKKSISVQGVILEEQLRMYLHCCLTLCDFWEPNIAIVTILWEYYSKNLNSSFSISWLPFKGLANTMKSPLSMLEMVKTCCCDKQDQELYKSSSSYTIFLCILAKVVKKAMKSNGPHPWKQVKGRIYSKFHQKRMEELTEVGLQNFFSLFLLLAAVAEVEDVASHVLDLLNFLKPAFVTSQRALIWKGHMAFLLMYAQKNLDIGVLAEKFSCAFREKAKEFLVSKNEEMVQRQTIWTLLSIYIDGVQEVFETSYCLYPSHEKLLNDGFSMLLRACRESELRTVLSFLQAVLARIRSMHQQLCQELQRDNVDLFVQSSLSAKERHLAAVASALWRHFFSFLKSQRMSQVVPFSQLADAAADFTLLAMDMPSTAPSDFQPQPVISIIQLFGWDDIICPQVVARYLSHVLQNSTLCEALSHSGYVSFQALTVRSWIRCVLQMYIKNLSGPDDLLIDKNLEEAVEKEYMKQLVKLTRLLFNLSEVKSIFSKAQVEYLSISEDPKKALVRFFEAVGVTYGNVQTLSDKSAMVTKSLEYLGEVLKYIKPYLGKKVFSAGLQLTYGMMGILVKSWAQIFATSKAQKLLFRIIDCLLLPHAVLQQEKELPAPMLSAIQKSLPLYLQGMCIVCCQSQNPNAYLNQLLGNVIEQYIGRFLPASPYVSDLGQHPVLLALRNTATIPPISSLKKCIVQVIRKSYLEYKGSSPPPRLASILAFILQLFKETNTDIYEVELLLPGILKCLVLVSEPQVKRLATENLQYMVKACQVGSEEEPSSQLTSVFRQFIQDYGMRYYYQVYSILETVATLDQQVVIHLISTLTQSLKDSEQKWGLGRNIAQREAYSKLLSHLGQMGQDEMQRLENDNT
- binding result (GFP-TONSL E568A): binds
- binding result [1]: binds
